In the experiment the target is native Ag GA733-2 on colorectal carcinoma cell line SW948 (human) (UniProt P16422). In words: cell ELISA on fixed SW948 cells, antibody at 0.93 ug/ml. A general note: ELISA stands for enzyme-linked immunosorbent assay.

Several values for one entry are separate records, joined by “and”; a condition that tells them apart may be missing. Equal values may be shown once.

Sequence of UniProt P16422 (P16422 24-314): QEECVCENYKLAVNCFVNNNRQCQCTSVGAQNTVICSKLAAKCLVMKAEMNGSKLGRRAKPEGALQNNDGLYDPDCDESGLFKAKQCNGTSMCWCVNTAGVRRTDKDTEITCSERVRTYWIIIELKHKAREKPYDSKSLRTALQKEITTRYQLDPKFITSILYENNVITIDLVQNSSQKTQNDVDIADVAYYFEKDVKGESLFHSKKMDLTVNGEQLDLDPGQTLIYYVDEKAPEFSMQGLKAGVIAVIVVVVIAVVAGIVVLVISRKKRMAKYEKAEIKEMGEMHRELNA

For “MAb CO17-1A purified from the hybridoma supernatant (antibody)”, the absorbance (absorbance (OD)) is 0.933 and 0.896.

Source of the values: patent publication US20050138692A1.
